# Source: US20190092856A1
# Molecular target: human OSM (recombinant, mammalian-cell derived, OSMN1-1) (human) (UniProt P13725)
# Assay: cell-based or functional assay
# Chain of human OSM (recombinant, mammalian-cell derived, OSMN1-1) (human) (P13725 26-221 limits assumed): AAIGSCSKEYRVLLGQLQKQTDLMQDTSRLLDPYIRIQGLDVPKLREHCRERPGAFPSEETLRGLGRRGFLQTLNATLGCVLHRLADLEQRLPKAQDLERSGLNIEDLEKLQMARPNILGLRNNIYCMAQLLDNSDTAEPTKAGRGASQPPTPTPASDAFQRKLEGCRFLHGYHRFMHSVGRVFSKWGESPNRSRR
substance,measurement,value
MAB295 (R&D Systems) (antibody),"pSTAT3 inhibition EC50 (A375 cells, 5 ng/ml hOSM)",72.1 ng/ml
